From article PMC6677818
pKd: −log10 of the molar value.

How the values were obtained:
[1] = molecular target: calcineurin, WT CN (CNA_(1–370):CNB_(1–170)) (human) (UniProt Q08209)
[2] = molecular target: calcineurin, WT CN (CNA_(1–370):CNB_(1–170)) (human) (UniProt Q08209); assay: ITC; NHE1 or variants (30–50 µM, syringe) titrated into CN (5–10 µM, cell), 25 °C, 20 mM Tris–HCl pH 7.5, 100 mM NaCl, 1 mM CaCl2, 0.5 mM TCEP; single site-binding model
[3] = molecular target: CNAA variant (CNA: H155A/Y159A, CNB), crystallisation construct CNA M1-N370 H155A Y159A, CNB 16–170 (human) (UniProt Q08209)
[4] = molecular target: CNA alone (alpha isoform: H27-D348; two C-terminal Asp residues added) (human) (UniProt Q08209)

Chain of UniProt Q08209 (Q08209 other isoform, or with tags, fused parts or gaps): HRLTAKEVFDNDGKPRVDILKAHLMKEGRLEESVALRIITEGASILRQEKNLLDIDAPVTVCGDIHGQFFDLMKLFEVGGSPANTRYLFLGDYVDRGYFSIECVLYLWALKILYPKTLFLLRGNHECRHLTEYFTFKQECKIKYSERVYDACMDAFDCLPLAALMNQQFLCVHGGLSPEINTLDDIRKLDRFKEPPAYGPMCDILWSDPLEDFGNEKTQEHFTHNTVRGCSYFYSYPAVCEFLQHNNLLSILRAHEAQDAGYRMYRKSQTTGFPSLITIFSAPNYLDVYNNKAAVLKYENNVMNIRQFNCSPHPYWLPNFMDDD

Substance | apparent in vitro dephosphorylation rate k (dephos) of pT779 of ERK2-phosphorylated NHE1ct variant by CN (NMR time course) [1] | pKd [2] | dH [2] | apparent in vitro dephosphorylation rate k (dephos) of pT779 of ERK2-phosphorylated NHE1ct by CNAA (NMR time course; 20:1 NHE1ct:CN, rate normalized using wt-NHE1ct) [3] | apparent in vitro dephosphorylation rate k (dephos) of pT779 of ERK2-phosphorylated NHE1ct by CNA alone (NMR time course) [4] | stoichiometry N [2]
NHE1ct WT (human NHE1 I680-Q815) (from UniProt P19634 680-815) (domain or fragment) |  | 7.23 | -12 kcal/mol | 0.06 h^-1 | 0.347 h^-1 | 1
NHE1ct_(ATAP) (NHE1 I680-Q815, L684A, V686A) (from UniProt P19634 680-815) (domain or fragment) | 0.642 h^-1 | 5.32 | -4.5 kcal/mol |  |  | 
NHE1ct_(ATAP/AVATAA) (NHE1 I680-Q815, L684A, V686A, P715A, I717A, I719A, D720A) (from UniProt P19634 680-815) (domain or fragment) | 0.811 h^-1 |  |  |  |  | 
NHE1ct_(AVATAA) (NHE1 I680-Q815, P715A, I717A, I719A, D720A) (from UniProt P19634 680-815) (domain or fragment) | 0.011 h^-1 | 5.62 | -7.6 kcal/mol |  |  | 
PxIxIT peptide (NHE1 E709-P727) (from UniProt P19634 709-727) |  | 5.19 | -2.9 kcal/mol |  |  | 

The remaining substances from weak to strong by pKd [2], led by results:

apparent in vitro dephosphorylation rate k (dephos) of pT779 of ERK2-phosphorylated NHE1ct variant by CN (NMR time course) [1] | pKd [2] | dH [2] | apparent in vitro dephosphorylation rate k (dephos) of pT779 of ERK2-phosphorylated NHE1ct by CNAA (NMR time course; 20:1 NHE1ct:CN, rate normalized using wt-NHE1ct) [3] | apparent in vitro dephosphorylation rate k (dephos) of pT779 of ERK2-phosphorylated NHE1ct by CNA alone (NMR time course) [4] | stoichiometry N [2] | Substance
0.028 h^-1 | 7.32 | -2.8 kcal/mol |  |  |  | NHE1ct P782A (NHE1 I680-Q815) (from UniProt P19634 680-815) (domain or fragment)
 | 7.68 | -12.2 kcal/mol |  |  |  | NHE1ct_(Δ92RARA) (NHE1ctΔ92 698AAA700; R698A, R700A) (from UniProt P19634 680-723) (domain or fragment)
 | 7.68 | -8.5 kcal/mol |  |  |  | NHE1ctΔ92 (NHE1 I680-S723) (from UniProt P19634 680-723) (domain or fragment)
 | 8.40 | -9 kcal/mol |  |  |  | NHE1ctΔ92 (PVIVIT) (from UniProt P19634 680-723) (domain or fragment)
